Measured values taken from paper PMC9270243.

Key:
Cas2/3 (P. aeruginosa) = Cas2/3 (P. aeruginosa) (UniProt Q02ML8); experiment: SPR
[1] = target: Csy complex (P. aeruginosa) (UniProt Q02ML9); experiment: MST
AcrIF23 (P. aeruginosa) = experiment: MST
AcrIF3 (P. aeruginosa) = experiment: MST
[2] = target: T1, Csy complex (Cas8f, Cas5f, Cas7f, Cas6f, crRNA) (Pseudomonas aeruginosa, UniProt Q02ML9;Q02MM0;Q02MM1;Q02MM2 1-434;1-327;1-342;1-187); experiment: EMSA
T1 sequence 1: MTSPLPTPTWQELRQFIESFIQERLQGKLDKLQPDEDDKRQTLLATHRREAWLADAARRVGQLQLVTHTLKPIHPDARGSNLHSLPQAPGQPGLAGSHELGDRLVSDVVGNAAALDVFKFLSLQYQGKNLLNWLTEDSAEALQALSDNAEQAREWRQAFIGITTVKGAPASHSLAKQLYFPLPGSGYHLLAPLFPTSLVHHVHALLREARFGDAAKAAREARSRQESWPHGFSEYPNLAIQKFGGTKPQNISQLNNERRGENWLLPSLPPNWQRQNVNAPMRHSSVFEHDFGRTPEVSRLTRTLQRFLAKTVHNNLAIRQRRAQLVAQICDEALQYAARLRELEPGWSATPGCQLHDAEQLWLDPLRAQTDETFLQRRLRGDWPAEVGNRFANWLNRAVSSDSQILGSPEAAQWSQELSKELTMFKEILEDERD
T1 sequence 2: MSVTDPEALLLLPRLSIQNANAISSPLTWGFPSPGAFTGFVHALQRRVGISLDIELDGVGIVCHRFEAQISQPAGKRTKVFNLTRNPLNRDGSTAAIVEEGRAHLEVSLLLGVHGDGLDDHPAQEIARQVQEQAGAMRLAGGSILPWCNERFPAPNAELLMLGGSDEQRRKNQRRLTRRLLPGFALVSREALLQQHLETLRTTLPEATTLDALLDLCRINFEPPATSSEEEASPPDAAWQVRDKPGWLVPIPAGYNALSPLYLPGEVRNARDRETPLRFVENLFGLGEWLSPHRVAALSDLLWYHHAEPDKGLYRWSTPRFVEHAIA
T1 sequence 3: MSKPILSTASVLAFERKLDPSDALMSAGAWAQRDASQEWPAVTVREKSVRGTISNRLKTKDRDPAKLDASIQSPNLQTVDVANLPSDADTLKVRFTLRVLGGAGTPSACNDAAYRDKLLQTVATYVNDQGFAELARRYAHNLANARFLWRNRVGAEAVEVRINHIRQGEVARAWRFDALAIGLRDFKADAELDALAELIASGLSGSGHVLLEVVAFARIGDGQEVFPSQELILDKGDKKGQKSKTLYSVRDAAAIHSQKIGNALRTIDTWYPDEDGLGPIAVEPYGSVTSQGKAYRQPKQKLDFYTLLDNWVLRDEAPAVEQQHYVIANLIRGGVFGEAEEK
T1 sequence 4: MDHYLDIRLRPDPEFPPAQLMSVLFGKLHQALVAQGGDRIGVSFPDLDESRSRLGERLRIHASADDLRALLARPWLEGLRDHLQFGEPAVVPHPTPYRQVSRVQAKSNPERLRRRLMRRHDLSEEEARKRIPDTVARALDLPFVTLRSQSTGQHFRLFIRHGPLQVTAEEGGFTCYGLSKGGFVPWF

[3] = target: Csy complex (Cas8f, Cas5f, Cas7f, Cas6f, crRNA);Cas2/3 (Pseudomonas aeruginosa;Pseudomonas …, UniProt Q02ML9;Q02MM0;Q02MM1;Q02MM2;Q02ML8 1-434;1-327;1-342;1-187;1-1076, |); experiment: EMSA
Cas2/3 = target: T2, Cas2/3 (UniProt Q02ML8 1-1076); experiment: EMSA
T2 sequence: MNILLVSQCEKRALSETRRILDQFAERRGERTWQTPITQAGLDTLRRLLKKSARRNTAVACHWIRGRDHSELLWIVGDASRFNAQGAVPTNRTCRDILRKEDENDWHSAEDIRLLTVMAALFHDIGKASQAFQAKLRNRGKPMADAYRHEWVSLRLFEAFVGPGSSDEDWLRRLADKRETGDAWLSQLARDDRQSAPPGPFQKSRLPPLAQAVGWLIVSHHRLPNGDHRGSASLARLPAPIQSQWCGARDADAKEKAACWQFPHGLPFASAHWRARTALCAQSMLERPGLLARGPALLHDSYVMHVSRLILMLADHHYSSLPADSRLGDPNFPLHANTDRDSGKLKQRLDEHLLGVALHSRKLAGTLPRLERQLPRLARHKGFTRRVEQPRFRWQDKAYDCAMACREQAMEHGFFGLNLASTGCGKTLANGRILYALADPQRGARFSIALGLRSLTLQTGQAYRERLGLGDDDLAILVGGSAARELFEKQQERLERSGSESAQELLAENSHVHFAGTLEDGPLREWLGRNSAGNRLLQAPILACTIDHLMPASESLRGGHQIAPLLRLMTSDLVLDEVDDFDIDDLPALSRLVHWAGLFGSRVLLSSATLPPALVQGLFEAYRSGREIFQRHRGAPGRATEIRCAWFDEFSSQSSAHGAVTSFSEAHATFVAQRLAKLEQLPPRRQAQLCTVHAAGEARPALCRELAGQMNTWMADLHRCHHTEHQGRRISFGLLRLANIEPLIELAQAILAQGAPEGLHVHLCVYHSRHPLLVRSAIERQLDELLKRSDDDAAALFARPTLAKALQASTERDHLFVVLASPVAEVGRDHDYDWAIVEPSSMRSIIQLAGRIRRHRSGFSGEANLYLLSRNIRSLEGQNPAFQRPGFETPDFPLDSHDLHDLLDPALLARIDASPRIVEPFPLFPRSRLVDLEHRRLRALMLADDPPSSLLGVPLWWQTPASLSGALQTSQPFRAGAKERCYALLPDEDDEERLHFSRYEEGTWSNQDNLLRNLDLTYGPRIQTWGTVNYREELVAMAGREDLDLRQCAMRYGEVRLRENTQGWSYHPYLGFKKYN

AcrIF23 (natural protein)
Kd (Cas2/3 (P. aeruginosa)): 3360 nM

AcrIF1 (natural protein)
Kd [1]: 420 nM

B1: Cas2/3 (enzyme)
chain: T2 sequence
Kd (AcrIF23 (P. aeruginosa)): 1200 nM | Kd (AcrIF3 (P. aeruginosa)): 31 nM

B2: 54 bp target dsDNA (dsDNA)
DNA 1: GGAAGCCATCCAGGTAGACGCGGACATCAAGCCCGCCGTGAAGGTGCAGCTGCT
DNA 2: AGCAGCTGCACCTTCACGGCGGGCTTGATGTCCGCGTCTACCTGGATGGCTTCC
binding result [2]: binds | binding result [3]: binds

B3: 54 nt ssDNA (ssDNA)
DNA: B2 DNA 1
binding result (Cas2/3): binds
